Data published in article PMC12480839, “Selective agonists of KIR and NKG2A to evade missing self response of natural killer cells” (Scientific Reports, 2025).

How the values were obtained:
[1] = biological target: T1, recombinant KIR2DL3 protein (flow cytometry binding assay) (UniProt P43628); test: flow cytometry on cells; recombinant receptor proteins at 0.1 µM in autoMACS Running Buffer added to 1 × 10^4 K562 cells expressing the membrane-bound scFv, 4 °C, 90 min; detected with APC anti-human IgG Fc antibody; median fluorescence normalised to control K562 cells; settings: one partner purified
T1 construct: KIR2DL3; In the functional rows the receptor was whole KIR2DL3*001 expressed on NK-92 cells

[2] = biological target: T2, recombinant KIR2DL2 protein (flow cytometry binding assay) (UniProt P43627); test: as above; settings: one partner purified
T2 construct: KIR2DL2
T2 sequence (P43627 22-245): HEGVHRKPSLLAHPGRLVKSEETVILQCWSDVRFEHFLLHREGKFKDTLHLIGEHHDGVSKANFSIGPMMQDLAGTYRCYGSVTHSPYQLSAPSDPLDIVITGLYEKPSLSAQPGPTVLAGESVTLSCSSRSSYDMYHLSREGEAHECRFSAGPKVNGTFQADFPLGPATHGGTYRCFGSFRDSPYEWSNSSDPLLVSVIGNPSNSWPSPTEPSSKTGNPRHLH

T1 sequence (P43628 22-245): as the sequence (P43627 22-245) above, with R16P, E35Q, C148R, I200T, K216E counted along it

B1: membrane-bound KIR2DL2/3 agonist 61 scFv expressed on K562 cells (scFv, V domains shown)
VH: QVQLVQSGAEVKKPGSSVKVSCKASGGTFSSFAISWVRQAPGQGLEWMGGIIPIFGTANYAQKFQGRVTITADESTSTAYMELSSLRSEDTAVYYCARVSGTTGGYYYGMDVWGQGTLVTVSS
VL: AIRMTQSPSSVSASVGDRVTITCRASQGIGNWLAWYQQKPGRAPKLLISTASSLQSGVPSRFSGGGSGRGFTLTISSLQLEDFATYYCQQSYITPWTFGQGTKVEIK
notes: (G4S)3 linker between the two scFv chains; second variable domain of agonist 61; Made with a CD8 signal peptide; firefly luciferase follows across a T2A peptide; also called scFv 61; KIR2DL2/3-specific scFv; source: K562 cells, transduced, on the cell surface; not shown: truncated human CD8 (CD8 hinge), C-terminal, kept
Does B1 bind [1]?
Result: binds

Does B1 bind [2]?
Result: binds
